Assays:
[1] = biological target: T1, human carcinoembryonic antigen (CEA, CEACAM5) on cells or tumor tissue (human, UniProt P06731 35-685); assay: flow cytometry titration on CT26-CEA cells, IgG1, PE anti-human IgG Fc detection; the CT26-wt curve stays near 0
T1 construct: whole, on cells; One entry covers all cell-based and tissue assays; also called human CEA
T1 sequence (looked up): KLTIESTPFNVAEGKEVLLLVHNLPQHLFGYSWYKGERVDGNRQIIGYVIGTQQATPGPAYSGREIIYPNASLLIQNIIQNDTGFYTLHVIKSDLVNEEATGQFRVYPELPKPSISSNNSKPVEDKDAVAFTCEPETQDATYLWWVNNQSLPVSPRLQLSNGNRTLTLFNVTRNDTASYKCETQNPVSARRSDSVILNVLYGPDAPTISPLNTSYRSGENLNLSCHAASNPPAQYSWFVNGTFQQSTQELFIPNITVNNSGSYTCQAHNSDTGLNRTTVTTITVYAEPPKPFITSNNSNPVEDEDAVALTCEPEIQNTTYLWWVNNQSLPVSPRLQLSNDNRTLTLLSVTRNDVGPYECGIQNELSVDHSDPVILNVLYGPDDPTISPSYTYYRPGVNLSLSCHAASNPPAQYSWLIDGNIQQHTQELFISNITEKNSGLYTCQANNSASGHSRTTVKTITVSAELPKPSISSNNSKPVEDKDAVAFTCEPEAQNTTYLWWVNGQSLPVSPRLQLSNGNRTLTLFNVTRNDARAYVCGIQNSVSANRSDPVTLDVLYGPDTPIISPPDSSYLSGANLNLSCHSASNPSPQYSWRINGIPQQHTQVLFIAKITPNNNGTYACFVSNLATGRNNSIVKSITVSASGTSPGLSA

[2] = biological target: T1, human carcinoembryonic antigen (CEA, …); assay: cell-based or functional assay
[3] = biological target: T2, human CEA (N-terminal domain) recombinant fragment containing a C-terminal 6xHis tag and a N-terminal BirA … (human, site specifically biotinylated using BirA (E. coli biotin ligase) at the BirA target sequence); assay: SPR (BIAcore X100), monomeric scFv over biotinylated CEA N-terminal domain on streptavidin chip
T2 construct: Expressed in CHO-S cells and immobilised on a streptavidin chip for all BIAcore runs; also called biotinylated CEA; human CEA N-terminal fragment
T2 chain: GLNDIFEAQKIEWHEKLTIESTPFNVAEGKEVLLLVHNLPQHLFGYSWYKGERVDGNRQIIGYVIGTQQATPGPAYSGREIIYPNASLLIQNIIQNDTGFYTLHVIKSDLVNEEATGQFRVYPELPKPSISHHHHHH

[4] = biological target: T1, human carcinoembryonic antigen (CEA, …); assay: immunofluorescence on LS174T tumor cryosections, FITC-labelled IgG1

B1: F7 antibody in IgG1 format (antibody, V domains shown)
VH: EVQLLESGGGLVQPGGSLRLSCAASGFTFSRTAMSWVRQAPGKGLEWVSAISGSGGSTYYADSVKGRFTISRDNSKNTLYLQMNSLRAEDTAVYYCAKLTYARFDYWGQGTLVTVSS
VL: EIVLTQSPGTLSLSPGERATLSCRASQSVSFPYLAWYQQKPGQAPRLLIYGASSRATGIPDRFSGSGSGTDFTLTISRLEPEDFAVYYCQQSGRVPWTFGQGTKVEIK
notes: also called F7 IgG
EC50 [1]: 0.77 nM

B2: PEA2 antibody in IgG1 format (antibody, V domains shown)
VH: EVQLLESGGGLVQPGGSLRLSCAASGFTFSRTAMSWVRQAPGKGLEWVSAIDYDGGVTYYADSVKGRFTISRDNSKNTLYLQMNSLRAEDTAVYYCAKLTYARFDYWGQGTLVTVSS
VL: EIVLTQSPGTLSLSPGERATLSCRASQSVSQNHLAWYQQKPGQAPRLLIYLASRRHTGIPDRFSGSGSGTDFTLTISRLEPEDFAVYYCQQSGRVPWTFGQGTKVEIKR
notes: also called PEA2 IgG1; PEA2 (IgG1)
EC50 [1]: 0.29 nM

B3: PEA2-anti-CD3 (PUB4) bispecific antibody in scDb-scFv with Fc KIH format (bispecific antibody, human IgG4 S228P)
heavy 1: EVQLLESGGGLVQPGGSLRLSCAASGFTFSRTAMSWVRQAPGKGLEWVSAIDYDGGVTYYADSVKGRFTISRDNSKNTLYLQMNSLRAEDTAVYYCAKLTYARFDYWGQGTLVTVSSGGSGGEIVLTQSPGTLSLSPGERATLSCRASQSVSQNHLAWYQQKPGQAPRLLIYLASRRHTGIPDRFSGSGSGTDFTLTISRLEPEDFAVYYCQQSGRVPWTFGQGTKVEIKGGGGSGGGGSGGGGSEVQLLESGGGLVQPGGSLRLSCAASGFTFSRTAMSWVRQAPGKGLEWVSAIDYDGGVTYYADSVKGRFTISRDNSKNTLYLQMNSLRAEDTAVYYCAKLTYARFDYWGQGTLVTVSSGGSGGEIVLTQSPGTLSLSPGERATLSCRASQSVSQNHLAWYQQKPGQAPRLLIYLASRRHTGIPDRFSGSGSGTDFTLTISRLEPEDFAVYYCQQSGRVPWTFGQGTKVEIKGSESKYGPPCPPCPAPEFLGGPSVFLFPPKPKDTLMISRTPEVTCVVVDVSQEDPEVQFNWYVDGVEVHNAKTKPREEQFNSTYRVVSVLTVLHQDWLNGKEYKCKVSNKGLPSSIEKTISKAKGQPREPQVYTLPPCQEEMTKNQVSLWCLVKGFYPSDIAVEWESNGQPENNYKTTPPVLDSDGSFFLYSRLTVDKSRWQEGNVFSCSVMHEALHNHYTQKSLSLSLGK
heavy 2: EVQLVESGGGLVQPGGSLRLSCAASGFTFSTYAMNWVRQAPGKGLEWVGRIRSKYNNYATYYADSVKDRFTISRDDSKNSLYLQMNSLKTEDTAVYYCVRHGNFGNSYVSWFAYWGQGTLVTVSSGGGGSGGGGSGGGGSQAVVTQEPSLTVSPGGTVTLTCRSSTGAVTTSNYANWVQQKPGQAPRGLIGGTNKRAPWTPARFSGSLLGGKAALTITGAQAEDEADYYCALWYSNLWVFGGGTKLTVLGSESKYGPPCPPCPAPEFLGGPSVFLFPPKPKDTLMISRTPEVTCVVVDVSQEDPEVQFNWYVDGVEVHNAKTKPREEQFNSTYRVVSVLTVLHQDWLNGKEYKCKVSNKGLPSSIEKTISKAKGQPREPQVCTLPPSQEEMTKNQVSLSCAVKGFYPSDIAVEWESNGQPENNYKTTPPVLDSDGSFFLVSRLTVDKSRWQEGNVFSCSVMHEALHNHYTQKSLSLSLGK
EC50, target cell killing (LS174T cells with human PBMCs, 5 days) [2]: 40 PM
fold potency in target cell killing against the scFvCD3-IgGCEA KIH format [2]: 3.5 fold

B4: F7 antibody in scFv format (scFv)
scFv: EVQLLESGGGLVQPGGSLRLSCAASGFTFSRTAMSWVRQAPGKGLEWVSAISGSGGSTYYADSVKGRFTISRDNSKNTLYLQMNSLRAEDTAVYYCAKLTYARFDYWGQGTLVTVSSGGGGSGGGGSGGGGEIVLTQSPGTLSLSPGERATLSCRASQSVSFPYLAWYQQKPGQAPRLLIYGASSRATGIPDRFSGSGSGTDFTLTISRLEPEDFAVYYCQQSGRVPWTFGQGTKVEIK
notes: also called F7 scFv
Kd [3]: 50 nM

B5: PEA2 antibody in scFv format (scFv)
scFv: EVQLLESGGGLVQPGGSLRLSCAASGFTFSRTAMSWVRQAPGKGLEWVSAIDYDGGVTYYADSVKGRFTISRDNSKNTLYLQMNSLRAEDTAVYYCAKLTYARFDYWGQGTLVTVSSGGGGSGGGGSGGGGEIVLTQSPGTLSLSPGERATLSCRASQSVSQNHLAWYQQKPGQAPRLLIYLASRRHTGIPDRFSGSGSGTDFTLTISRLEPEDFAVYYCQQSGRVPWTFGQGTKVEIK
notes: also called PEA2 scFv
Kd [3]: 7.7 nM

B6: anti-hen egg lysozyme antibody KSF in IgG1 format (antibody, V domains shown)
VH: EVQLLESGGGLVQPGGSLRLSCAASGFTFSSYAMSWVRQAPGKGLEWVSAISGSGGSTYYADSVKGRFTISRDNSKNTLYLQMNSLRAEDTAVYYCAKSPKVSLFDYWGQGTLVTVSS
VL: SSELTQDPAVSVALGQTVRITCQGDSLRSYYASWYQQKPGQAPVLVIYGKNNRPSGIPDRFSGSSSGNTASLTITGAQAEDEADYYCNSSPLNRLAVVFGGGTKLTVLG
notes: Negative control; It was conjugated to FITC for the immunofluorescence experiments; also called KSF IgG1; KSF (IgG1)
binding result [4]: no binding (tested: 10 ug/mL)

B7: PEA2-anti-CD3 (PUB4) bispecific antibody in scFv-IgG4 KIH format (bispecific antibody)
heavy 1: EVQLVESGGGLVQPGGSLRLSCAASGFTFSTYAMNWVRQAPGKGLEWVGRIRSKYNNYATYYADSVKDRFTISRDDSKNSLYLQMNSLKTEDTAVYYCVRHGNFGNSYVSWFAYWGQGTLVTVSSGGGGSGGGGSGGGGSQAVVTQEPSLTVSPGGTVTLTCRSSTGAVTTSNYANWVQQKPGQAPRGLIGGTNKRAPWTPARFSGSLLGGKAALTITGAQAEDEADYYCALWYSNLWVFGGGTKLTVLGGGGSGGGGSGGGGSEVQLLESGGGLVQPGGSLRLSCAASGFTFSRTAMSWVRQAPGKGLEWVSAIDYDGGVTYYADSVKGRFTISRDNSKNTLYLQMNSLRAEDTAVYYCAKLTYARFDYWGQGTLVTVSSASTKGPSVFPLAPCSRSTSESTAALGCLVKDYFPEPVTVSWNSGALTSGVHTFPAVLQSSGLYSLSSVVTVPSSSLGTKTYTCNVDHKPSNTKVDKRVESKYGPPCPPCPAPEFLGGPSVFLFPPKPKDTLMISRTPEVTCVVVDVSQEDPEVQFNWYVDGVEVHNAKTKPREEQFNSTYRVVSVLTVLHQDWLNGKEYKCKVSNKGLPSSIEKTISKAKGQPREPQVYTLPPCQEEMTKNQVSLWCLVKGFYPSDIAVEWESNGQPENNYKTTPPVLDSDGSFFLYSRLTVDKSRWQEGNVFSCSVMHEALHNHYTQKSLSLSLGK
heavy 2: EVQLLESGGGLVQPGGSLRLSCAASGFTFSRTAMSWVRQAPGKGLEWVSAIDYDGGVTYYADSVKGRFTISRDNSKNTLYLQMNSLRAEDTAVYYCAKLTYARFDYWGQGTLVTVSSASTKGPSVFPLAPCSRSTSESTAALGCLVKDYFPEPVTVSWNSGALTSGVHTFPAVLQSSGLYSLSSVVTVPSSSLGTKTYTCNVDHKPSNTKVDKRVESKYGPPCPPCPAPEFLGGPSVFLFPPKPKDTLMISRTPEVTCVVVDVSQEDPEVQFNWYVDGVEVHNAKTKPREEQFNSTYRVVSVLTVLHQDWLNGKEYKCKVSNKGLPSSIEKTISKAKGQPREPQVCTLPPSQEEMTKNQVSLSCAVKGFYPSDIAVEWESNGQPENNYKTTPPVLDSDGSFFLVSRLTVDKSRWQEGNVFSCSVMHEALHNHYTQKSLSLSLGK
light: EIVLTQSPGTLSLSPGERATLSCRASQSVSQNHLAWYQQKPGQAPRLLIYLASRRHTGIPDRFSGSGSGTDFTLTISRLEPEDFAVYYCQQSGRVPWTFGQGTKVEIKRTVAAPSVFIFPPSDEQLKSGTASVVCLLNNFYPREAKVQWKVDNALQSGNSQESVTEQDSKDSTYSLSSTLTLSKADYEKHKVYACEVTHQGLSSPVTKSFNRGEC
EC50, target cell killing (LS174T cells with human PBMCs, 5 days) [2]: 140000 nM

— patent US20260226189A1 (PHILOGEN S P A, published 2026)
